Reference: patent US20250215104A1 (WALDEN BIOSCIENCES, published 2025)

Experiments:
cynomolgus suPAR = biological target: T1, cynomolgus suPAR (cynomolgus, UniProt Q9GK78 23-303, limits assumed); assay: BLI (Octet Red 96E), antibody immobilized
T1 construct: also called Cynomolgus suPAR isoform protein; cynomolgus uPAR
Excerpt: Recombinantly expressed proteins for hsuPAR isoform 1-D2D3 fragment and hsuPAR-3 isoforms were custom generated in HEK or CHO cells and purified by Genscript from the known amino-acid sequence of hsuPAR-1 and hsuPAR-3 respectively. Cynomolgus suPAR isoform protein was commercially obtained from Creative Biomart.

[1] = biological target: T2, human suPAR (hsuPAR) recombinant protein (human, UniProt Q03405 23-303); assay: BLI (Octet Red96E), WAb0014 immobilized on AHC sensor, hsuPAR as analyte
T2 construct: it is written here as the same molecule; also called recombinant hsuPAR
T2 sequence (Q03405 23-303): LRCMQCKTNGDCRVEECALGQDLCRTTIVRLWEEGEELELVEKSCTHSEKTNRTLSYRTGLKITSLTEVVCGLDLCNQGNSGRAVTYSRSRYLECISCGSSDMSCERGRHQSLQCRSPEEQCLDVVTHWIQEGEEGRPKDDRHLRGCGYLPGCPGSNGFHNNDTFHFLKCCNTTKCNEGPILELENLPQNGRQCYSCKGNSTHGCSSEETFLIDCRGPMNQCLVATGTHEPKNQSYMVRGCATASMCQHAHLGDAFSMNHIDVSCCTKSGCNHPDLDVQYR
Experimental: (§1) Analyte global association (kₐ) and disassociation […] rates were calculated using in-built functions to determine binding affinity (KD)

[2] = biological target: T3, mouse cell surface uPAR (muPAR) (mouse, UniProt P35456 24-298); assay: flow cytometry on undifferentiated mouse podocytes, FITC secondary antibody
T3 construct: whole, on cells; also called mouse uPAR
T3 sequence (looked up): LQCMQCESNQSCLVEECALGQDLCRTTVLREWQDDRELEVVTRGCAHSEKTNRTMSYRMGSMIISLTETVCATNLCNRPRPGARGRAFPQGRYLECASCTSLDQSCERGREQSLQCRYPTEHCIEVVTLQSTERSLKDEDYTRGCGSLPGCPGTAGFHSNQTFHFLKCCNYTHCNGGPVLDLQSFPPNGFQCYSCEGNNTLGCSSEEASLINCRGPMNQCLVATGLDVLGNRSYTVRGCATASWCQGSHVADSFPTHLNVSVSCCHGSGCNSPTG
Experimental: Gene expression of mouse uPAR in undifferentiated mouse podocyte cells was undertaken using commercial gene specific qPCR probes for mouse and human uPAR and normalized to 18S housekeeping gene expression using manufacturers RT-qPCR protocol (Thermofisher). Separately, mouse podocytes were incubated with 100 μg/mL concentration of anti-hsuPAR and Proteintech positive control anti-mouse uPAR antibodies at 4° C. for 1 hr. After 2 cycles of wash to remove any unbound antibody, cells were incubated with 10 μg/mL of a goat-anti-human-FITC or goat-anti-mouse-FITC or goat-anti-rabbit-FITC conjugated secondary antibody for 1 hr at 4° C. After washing any unbound secondary antibody, cell suspensions for each sample was gated for single cells and population mean fluorescence intensity was recorded and analyzed on a Luminex Flowsight flow cytometer. Mean fluorescence intensity for test samples was plotted in GraphPad Prism software and compared to positive control sample data.

[3] = biological target: T2, human suPAR (hsuPAR) recombinant protein; assay: BLI (Octet Red96E), hsuPAR immobilized on streptavidin sensor, WAb0014 as analyte
Experimental: as §1

[4] = biological target: T4, cell surface human uPAR (huPAR) (human, UniProt Q03405 23-305); assay: flow cytometry on human podocytes, FITC secondary antibody, MFI against concentration
T4 construct: whole, on cells; also called cell surface huPAR; cell surface uPAR
T4 sequence (Q03405 23-305): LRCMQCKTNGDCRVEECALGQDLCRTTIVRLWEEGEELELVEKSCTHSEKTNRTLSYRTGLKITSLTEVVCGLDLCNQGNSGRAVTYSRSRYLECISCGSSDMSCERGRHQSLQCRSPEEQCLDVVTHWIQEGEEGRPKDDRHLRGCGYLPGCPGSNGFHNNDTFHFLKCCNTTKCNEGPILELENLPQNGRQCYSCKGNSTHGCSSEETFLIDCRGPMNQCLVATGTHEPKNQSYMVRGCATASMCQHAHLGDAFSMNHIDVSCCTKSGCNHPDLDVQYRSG
Experimental: After 2 cycles of wash to remove any unbound antibody, cells were incubated with 10 μg/mL of a goat-anti-human-FITC conjugated secondary antibody for 1 hr at 4° C.

[5] = biological target: T5, human neonatal FcRn receptor (hFcRn), biotinylated (human, UniProt P55899 24-297, biotinylated (site not stated)); assay: BLI (Octet Red96E), biotinylated hFcRn on SA sensor, WAb0014 as analyte, acidic conditions (pH 6)
T5 construct: also called FcRn receptors; neonatal FcRn receptors
T5 sequence (P55899 24-297 limits assumed, form in doubt): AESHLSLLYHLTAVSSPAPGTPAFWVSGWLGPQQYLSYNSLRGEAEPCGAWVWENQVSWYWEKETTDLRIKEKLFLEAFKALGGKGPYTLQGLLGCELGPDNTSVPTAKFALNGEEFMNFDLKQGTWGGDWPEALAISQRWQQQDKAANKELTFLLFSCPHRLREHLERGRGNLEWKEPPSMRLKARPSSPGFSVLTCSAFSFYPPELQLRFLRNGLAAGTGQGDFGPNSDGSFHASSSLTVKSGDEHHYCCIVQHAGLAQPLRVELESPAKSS
Experimental: Biotinylated hFcRn protein was sourced from Acro Biosystems and immobilized on a SA biosensor. […] Binding affinity (KD, nM) was calculated from the response rate constants as described above.

[6] = biological target: T6, Fc-gammaR1 receptor recombinant protein, biotinylated (Homo sapiens (Human), UniProt P12314 16-292, Biotinylated for capture on the sensor; the site of biotin is not stated in the passages seen.); assay: BLI (Octet Red96E), biotinylated Fc-gammaR1 on streptavidin sensor, antibody as analyte
T6 construct: also called Fc-gammaR1 isoform
T6 sequence (P12314 16-292 limits assumed, form in doubt): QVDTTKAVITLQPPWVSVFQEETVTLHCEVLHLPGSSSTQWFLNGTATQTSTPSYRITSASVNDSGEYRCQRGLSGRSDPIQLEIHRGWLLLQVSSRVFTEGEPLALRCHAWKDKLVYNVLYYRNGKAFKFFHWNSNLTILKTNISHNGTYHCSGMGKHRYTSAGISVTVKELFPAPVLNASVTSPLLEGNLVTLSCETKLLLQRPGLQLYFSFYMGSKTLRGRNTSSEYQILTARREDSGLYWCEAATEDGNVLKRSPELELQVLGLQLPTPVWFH
Experimental: Antibody induced immune response is known to be mediated by interaction with Fc-gamma receptors. Immunologic response potential of WAL0921-ΔK was assessed biophysically on an Octet Red96E platform by measuring the binding affinity to Fc-gammaR1, high affinity Fc-gammaR2a and high affinity Fc-gammaR3a receptor recombinant proteins.
Biotinylated Fc-gamma proteins were procured from Acro Biosystems and immobilized on a streptavidin biosensor. Increasing concentrations of analyte WAL0921-ΔK were then applied, and responses measured. Binding affinity (KD, nM) was calculated from the response rate constants as described above.

T1 sequence (Q9GK78 23-303 limits assumed): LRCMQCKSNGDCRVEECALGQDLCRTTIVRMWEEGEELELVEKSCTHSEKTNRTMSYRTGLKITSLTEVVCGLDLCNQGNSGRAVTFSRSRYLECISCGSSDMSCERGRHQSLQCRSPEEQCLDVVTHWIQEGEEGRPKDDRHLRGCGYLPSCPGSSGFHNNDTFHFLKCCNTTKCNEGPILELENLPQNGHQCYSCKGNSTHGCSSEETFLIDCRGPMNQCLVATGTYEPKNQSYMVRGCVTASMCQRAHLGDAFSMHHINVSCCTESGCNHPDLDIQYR

B1: WAb0014 (antibody, human IgG1)
heavy: not shown
light: DIQMTQSPSSLSASVGDRVTITCSARQSVSYMYWYQQKPGKAPKLLIYRTSNLASGVPSRFSGSGSGTDFTLTISSLQPEDFATYYCQQYHSYPPTFGGGTKVEIKRTVAAPSVFIFPPSDEQLKSGTASVVCLLNNFYPREAKVQWKVDNALQSGNSQESVTEQDSKDSTYSLSSTLTLSKADYEKHKVYACEVTHQGLSSPVTKSFNRGEC
notes: human kappa; also called initial anti-suPAR antibody; original candidate; copies: 2 + 2
Kd (cynomolgus suPAR): 10.5 nM | Kd [1]: 0.69 to 2 nM | binding result [2]: no binding (tested: 100 µg/mL) | Kd [3]: < 0.1 nM | Kd [4]: 1 to 3 nM | Kd [5]: 0.025 nM

B2: WAL0921-ΔK (antibody)
heavy: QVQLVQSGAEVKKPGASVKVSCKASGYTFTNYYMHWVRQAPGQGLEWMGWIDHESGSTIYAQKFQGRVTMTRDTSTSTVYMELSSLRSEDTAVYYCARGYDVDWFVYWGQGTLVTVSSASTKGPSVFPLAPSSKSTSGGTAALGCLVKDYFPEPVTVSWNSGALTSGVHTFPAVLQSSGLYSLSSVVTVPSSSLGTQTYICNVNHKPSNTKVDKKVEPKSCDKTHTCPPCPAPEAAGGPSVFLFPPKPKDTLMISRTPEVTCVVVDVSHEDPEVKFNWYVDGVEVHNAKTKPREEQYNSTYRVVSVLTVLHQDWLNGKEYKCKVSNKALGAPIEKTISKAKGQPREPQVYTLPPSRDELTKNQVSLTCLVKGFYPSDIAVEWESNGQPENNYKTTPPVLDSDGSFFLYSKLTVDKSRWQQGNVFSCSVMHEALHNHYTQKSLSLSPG
light: B1 light
notes: Same as WAL0921 but without the C-terminal lysine of the heavy chain (K448 of the whole heavy chain); also called WAL0921 without K448
Kd [6]: 1750 nM

B3: WAb0006 (antibody, human IgG1, V domains shown)
VH: QVQLVQSGAEVKKPGASVKVSCKASGYTFTSHYIQWVRQAPGQGLEWMGWIDHENGNTIYDQKFQGRVTMTRDTSTSTVYMELSSLRSEDTAVYYCARGTDVDWFVYWGQGTLVTVSS
VL: DIQMTQSPSSLSASVGDRVTITCSARSSVSYMYWYQQKPGKAPKLLIYRTSNLASGVPSRFSGSGSGTDFTLTISSLQPEDFATYYCQQYHSYPPTFGGGTKVEIKR
notes: The listing names these entries 'WAb CD0006'; Fc region identical to WAb0014 (human IgG1, L235A, L236A); human kappa; also called original backup candidate
binding result [2]: no binding (tested: 100 µg/mL)

B4: WAb0008 (antibody, IgG2a, V domains shown)
VH: B3 VH
VL: DIQMTQSPSSLSASVGDRVTITCSARSSVSYMYWYQQKPGKAPKLLIYRTSNLASGVPSRFSGSGSGTDFTLTISSLQPEDFATYYCQQYHSYPPTFGGGTKVEIK
notes: The listing names these entries 'WAb CD0008'; WAb0006 VH + mIgG2a Fc with L235A and L236A; WAb0006 VL + mouse kappa constant; also called WAb008; mouse IgG2a version of WAb0006
binding result [2]: no binding (tested: 100 µg/mL)
